Measurements: US12570698B2, “Stabilized peptides for covalent binding to target protein” (Dana-Farber Cancer Institute, Inc., priority 2015, dated 2026)
Positions count from the first letter of the chain named. Bridge positions count the residues as written; N and C are the ends. Square brackets hold non-standard residues; d marks the D form. Ends that are not written are not given here. S5 = C=CCCC[C@](C)(N)C(=O)O

How the values were obtained:
Bfl-1 [1] = biological target: T1, Bfl-1 (Homo sapiens, UniProt Q16548); assay: Competitive binding assay after pre-forming the Bfl-1:NOXA disulfide bond; conditions: Bfl-1:NOXA disulfide bond pre-formed
T1 sequence (Q16548 1-175): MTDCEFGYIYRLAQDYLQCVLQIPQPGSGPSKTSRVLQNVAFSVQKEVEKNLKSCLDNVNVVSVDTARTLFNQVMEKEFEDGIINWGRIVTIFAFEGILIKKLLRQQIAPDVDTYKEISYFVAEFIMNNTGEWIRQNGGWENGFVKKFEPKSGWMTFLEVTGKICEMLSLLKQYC
Experimental: The functional impact of the Bfl-1:NOXA disulfide bond formation was evaluated using competitive binding assays and liposomal release assays.

BFL-1ΔC [2] = biological target: T2, BFL-1ΔC (Homo sapiens, UniProt Q16548, C19S/C4S/C55S); assay: In vitro covalent conjugation assay; assay type: binding; conditions: lacks C55; oxidizing conditions
T2 construct: cDNA encoding BFL-1ΔC (aa 1-153) was cloned into the pET19b expression vector; made in house; host or cells: Escherichia coli BL21(DE3) LOBSTR
T2 sequence (Q16548 1-153 C4S/C19S/C55S): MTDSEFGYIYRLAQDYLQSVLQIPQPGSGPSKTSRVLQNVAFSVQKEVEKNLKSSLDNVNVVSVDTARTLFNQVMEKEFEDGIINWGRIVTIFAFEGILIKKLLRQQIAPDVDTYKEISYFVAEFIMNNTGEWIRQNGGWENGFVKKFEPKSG
Experimental: (§1) In Vitro Covalent Conjugation Assay: BFL-1ΔC constructs (40 μM) were combined with NOXA SAHBA or NOXA SAHBA C25S (120 μM) and 10 mM DTT in 50 mM Tris pH 8.0, 100 mM NaCl (final volume, 5 μL), and then incubated in the dark for 1 h at room temperature (RT). After this incubation in a reducing environment, the mixture was diluted 5-fold into 50 mM Tris pH 8.0, 100 mM NaCl, 12 mM GSSG and incubated in the dark for an additional 30 min at RT. The samples were then boiled in 4× loading buffer lacking DTT and electrophoresed on 12% Bis-Tris gel. The gel was rinsed with water, subjected to FITC scan (Typhoon FLA 9500, GE Healthcare) and then Coomassie staining.
(§2) For warhead-bearing SAHBs, His-BFL-1ΔC C4S/C19S protein was pretreated with 10 mM DTT in 50 mM Tris pH 8.0, 100 mM NaCl for 30 min at RT (final volume, 9.5 μL), and then combined with a 10:1 molar ratio of NOXA SAHBA or BIM SAHBA peptides bearing warheads 1-8 (final volume, 10 μL) for an additional 2 h incubation at RT. Processing for gel electrophoresis and Coomassie staining was performed as above.

BFL-1ΔC [3] = biological target: T3, BFL-1ΔC (Homo sapiens, UniProt Q16548, C19S/C4S); assay: In vitro covalent conjugation assay; assay type: binding; conditions: only C55 present; oxidizing conditions
T3 construct: cDNA encoding BFL-1ΔC (aa 1-153) was cloned into the pET19b expression vector; made in house; host or cells: Escherichia coli BL21(DE3) LOBSTR
T3 sequence (Q16548 1-153 C4S/C19S): T2 sequence (Q16548 1-153 C4S/C19S/C55S) with S55C
Experimental: as §1, §2

BFL-1ΔC [4] = biological target: T4, BFL-1ΔC (Homo sapiens, UniProt Q16548); assay: In vitro covalent conjugation assay; assay type: binding; conditions: DTT (10 mM) reduction then GSSG oxidation (12 mM); Coomassie, FITC scan
T4 construct: cDNA encoding BFL-1ΔC (aa 1-153) was cloned into the pET19b expression vector; made in house; host or cells: Escherichia coli BL21(DE3) LOBSTR
T4 sequence (Q16548 1-153): T2 sequence (Q16548 1-153 C4S/C19S/C55S) with S4C, S19C, S55C
Experimental: as §1, §2

GST-MCL-1ΔNΔC = biological target: T5, GST-MCL-1ΔNΔC (Homo sapiens, UniProt Q07820); assay: Streptavidin pull-down from anti-apoptotic protein mixture; assay type: binding; conditions: 1:1:1:1 mixture, 1 μM each, biotinylated SAHBs
T5 construct: MCL-1ΔNΔC (aa 170-327) and BCL-XLΔC (aa 1-212) constructs were cloned into pGEX-4T-1; made in house; host or cells: Escherichia coli BL21(DE3)
Excerpt: We next explored how conversion of NOXA and BIM SAHBs to BFL-1 C55-reactive agents influenced the balance between noncovalent and covalent SAHB interactions in the context of an anti-apoptotic protein mixture. First, we generated recombinant MCL-1ΔNΔC, BCL-XLΔC and BFL-1ΔC proteins with differential N-terminal tags (GST, tagless, and His, respectively) so that each could be readily identified upon gel electrophoresis and silver stain (FIG. 13A-B).
Streptavidin Pull-down: Recombinant His-BFL-1ΔC, BCL-XLΔC (tagless) and GST-MCL-1ΔNΔC (1 μM each) were combined and reduced with 3 mM DTT in PBS for 30 min at RT, and then incubated with 1 μM biotinylated SAHBA, SAHBA-3 or vehicle for 4 h at RT. The mixtures were then combined with PBS-washed high-capacity SA agarose (Thermo Fisher Pierce) and incubated with rotation for 2 h at RT. The beads were centrifuged at 3000 rpm, washed twice with NP-40 lysis buffer (1% NP40, 50 mM Tris pH 8.0, 100 mM NaCl, 2.5 mM MgCl2), once with PBS, and then bound protein eluted by boiling in 10% SDS containing 10 mg/mL biotin. Inputs (10%) and eluates were electrophoresed on a 12% Bis-Tris gel and then subjected to silver stain and imaging.

Bfl-1 [5] = biological target: T1, Bfl-1; assay: Liposomal release assay (Bfl-1 inhibition of BAX activation); assay type: biochemical
Experimental: The functional impact of the Bfl-1:NOXA disulfide bond formation was evaluated using competitive binding assays and liposomal release assays. […] Bfl-1 alone in the liposomal release assay inhibits activation of BAX and subsequent pore formation in the liposomes. […] (FIG. 5A and FIG. 5B).
Liposomal release assay: Large unilamellar vesicles (LUVs) with lipid composition resembling the mitochondrial outer membrane were generated, encapsulating the fluorescent dye ANTS (8-aminonaphthalene-1,3,6-trisulfonic acid, disodium salt) and the quencher DPX (p-xylene-bis-pyridinium bromide). For measurement of Bfl-1-induced inhibition of BAX, Bfl-1, BAX, tBid activator and liposomes were combined. To test effects of covalently bound Bfl-1:NOXA on BAX activation, Bfl-1 and NOXA SAHB were preincubated as described, then used at the designated concentrations. ANTS release and dequenching due to DPX dissociation (F) was measured over a period of 120 min with an M1000 Infinite plate reader (Tecan) with excitation and emission wavelengths of 355 nm and 520 nm, respectively. Plates were read following liposome lysis with 1% Triton X-100 to determine maximal release (F100). Percent ANTS/DPX release was calculated as [(F−F0)/(F100−F0)]×100.

T5 sequence (Q07820 170-327, stated change not applied): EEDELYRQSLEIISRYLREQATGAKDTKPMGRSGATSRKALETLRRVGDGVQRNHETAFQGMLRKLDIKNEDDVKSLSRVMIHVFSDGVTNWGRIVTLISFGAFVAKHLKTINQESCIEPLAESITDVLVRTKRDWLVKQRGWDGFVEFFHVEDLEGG

With “NOXA SAHBA: stapled NOXA BH3 (aa 19-43) peptide, i, i+4 all-hydrocarbon staple substituting R31 and K35; SEQ ID NO:124 (AELEVECATQLR[S5]FGD[S5]LNFRQKLL; staple 13-17; not fully specified)” the “availability of the Bfl-1 binding pocket to another FITC BH3 domain” value (Bfl-1 [1]) was “significantly decreased the availability of the Bfl-1 binding pocket”, the “disulfide adduct with BFL-1ΔC C4S/C19S/C55S” value (BFL-1ΔC [2]) was “no adduct” and the “disulfide adduct with BFL-1ΔC C4S/C19S” value (BFL-1ΔC [3]) was “molecular weight shift (Coomassie stain) and FITC-labeling”. For the same substance, the “molecular weight shift of wild-type BFL-1ΔC (disulfide bond)” value (BFL-1ΔC [4]) was “shift in the molecular weight”, the “MCL-1ΔNΔC capture in SA pull-down” value (GST-MCL-1ΔNΔC) was “prominent non-covalent capture of MCL-1ΔNΔC” and the “inhibition of anti-apoptotic effects of Bfl-1 on BAX” value (Bfl-1 [5]; Bfl-1:NOXA disulfide bond formed prior to the assay) was “almost completely erases the effects of Bfl-1”. For the same substance, the “inhibition of anti-apoptotic effects of Bfl-1 on BAX” value (Bfl-1 [5]; NOXA added concurrently with Bfl-1) was “somewhat inhibited”.
